According to US20240182536A1 (MURAL ONCOLOGY, published 2024):

T1: IL-18 binding protein (IL-18BP) (UniProt O95998 31-194)
T1 sequence (looked up): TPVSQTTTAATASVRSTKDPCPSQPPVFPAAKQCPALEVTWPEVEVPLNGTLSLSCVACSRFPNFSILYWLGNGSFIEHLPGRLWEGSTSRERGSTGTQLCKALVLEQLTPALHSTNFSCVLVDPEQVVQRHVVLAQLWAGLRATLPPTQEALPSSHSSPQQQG

T2: IL-18 receptors on HEK-Blue IL-18 reporter cells (UniProt Q13478 19-541; O95256 20-599, limits assumed)
T2 sequence (looked up) 1: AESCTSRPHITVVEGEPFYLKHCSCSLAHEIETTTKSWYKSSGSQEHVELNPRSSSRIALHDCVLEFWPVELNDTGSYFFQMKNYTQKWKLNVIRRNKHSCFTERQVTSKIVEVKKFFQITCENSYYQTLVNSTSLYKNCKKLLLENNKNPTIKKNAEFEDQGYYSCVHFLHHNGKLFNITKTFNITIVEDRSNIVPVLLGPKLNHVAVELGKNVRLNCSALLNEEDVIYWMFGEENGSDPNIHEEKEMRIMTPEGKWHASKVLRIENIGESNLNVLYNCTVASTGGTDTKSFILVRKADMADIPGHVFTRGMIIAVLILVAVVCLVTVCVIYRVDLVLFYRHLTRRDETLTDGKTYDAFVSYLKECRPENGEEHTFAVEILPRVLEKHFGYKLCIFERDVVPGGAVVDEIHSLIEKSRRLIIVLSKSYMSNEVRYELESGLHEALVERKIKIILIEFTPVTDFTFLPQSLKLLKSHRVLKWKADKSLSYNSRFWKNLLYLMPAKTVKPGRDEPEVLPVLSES
T2 sequence (looked up) 2: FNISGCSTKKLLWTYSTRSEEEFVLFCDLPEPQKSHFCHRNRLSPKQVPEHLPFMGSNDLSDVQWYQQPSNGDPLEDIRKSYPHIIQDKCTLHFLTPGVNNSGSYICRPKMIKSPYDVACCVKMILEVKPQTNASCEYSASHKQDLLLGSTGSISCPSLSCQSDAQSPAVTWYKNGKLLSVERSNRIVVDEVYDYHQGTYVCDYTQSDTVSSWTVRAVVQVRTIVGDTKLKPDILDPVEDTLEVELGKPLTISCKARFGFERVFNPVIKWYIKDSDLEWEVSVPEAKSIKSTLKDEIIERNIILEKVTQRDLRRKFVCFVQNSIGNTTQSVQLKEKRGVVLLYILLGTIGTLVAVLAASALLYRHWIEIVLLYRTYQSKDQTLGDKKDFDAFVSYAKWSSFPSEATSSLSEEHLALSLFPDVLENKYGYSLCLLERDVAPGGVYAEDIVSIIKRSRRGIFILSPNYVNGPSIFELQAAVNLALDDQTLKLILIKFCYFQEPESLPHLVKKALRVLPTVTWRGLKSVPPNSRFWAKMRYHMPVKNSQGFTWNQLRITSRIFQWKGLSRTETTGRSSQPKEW


Tests used:
[1] = target: T1, IL-18 binding protein (IL-18BP); experiment: cell-based or functional assay
[2] = target: T2, IL-18 receptors on HEK-Blue IL-18 …; experiment: cell-based or functional assay

Row | Binder | Activity, +100 nM BP, DF-1000002 [1] | Activity, +100 nM BP, DF-5000003 [1] | Activity, +100 nM BP, DF-25000004 [1] | Ratio (-BP/+BP), DF-1000005 [1] | Ratio (-BP/+BP), DF-5000006 [1] | Ratio (-BP/+BP), DF-25000007 [1] | Activity, No BP, DF-100000 [2] | Activity, No BP, DF-500000 [2] | Activity, No BP, DF-2500000 [2]
1 | IL-18 variant G3L, E6Y, D54T, T63S, N91Y, R104Q (ligand) YFLKLYSKLSVIRNLNDQVLFIDQGNRPLFEDMTDSDMRDNAPRTIFIISMYKTSQPRGMAVSISVKSEKISTLSSENKIISFKEMNPPDYIKDTKSDIIFFQQSVPGHDNKMQFESSSYEGYFLASEKERDLFKLILKKEDELGDRSIMFTVQNED | 2.04 | 1.92 | 1.45 | 1.05 | 1.05 | 1.17 | 2.14 | 2.02 | 1.69
2 | IL-18 variant G3D, E6G, K53G, D54A, T63S, N91Y, R104Q (ligand) YFDKLGSKLSVIRNLNDQVLFIDQGNRPLFEDMTDSDMRDNAPRTIFIISMYGASQPRGMAVSISVKSEKISTLSSENKIISFKEMNPPDYIKDTKSDIIFFQQSVPGHDNKMQFESSSYEGYFLASEKERDLFKLILKKEDELGDRSIMFTVQNED | 1.33 | 0.73 | 0.19 | 1.02 | 0.98 | 1.14 | 1.36 | 0.72 | 0.21
3 | IL-18 variant G3P, E6H, D54A, S55P, Q56K, T63S, N91M (ligand) YFPKLHSKLSVIRNLNDQVLFIDQGNRPLFEDMTDSDMRDNAPRTIFIISMYKAPKPRGMAVSISVKSEKISTLSSENKIISFKEMNPPDMIKDTKSDIIFFQRSVPGHDNKMQFESSSYEGYFLASEKERDLFKLILKKEDELGDRSIMFTVQNED | 1.24 | 0.61 | 0.19 | 0.97 | 1.03 | 0.9 | 1.2 | 0.63 | 0.17
4 | IL-18 variant G3Q, E6Q, K53T, D54W, S55F, N91Y (ligand) YFQKLQSKLSVIRNLNDQVLFIDQGNRPLFEDMTDSDMRDNAPRTIFIISMYTWFQPRGMAVTISVKSEKISTLSSENKIISFKEMNPPDYIKDTKSDIIFFQRSVPGHDNKMQFESSSYEGYFLASEKERDLFKLILKKEDELGDRSIMFTVQNED | 1.14 | 0.45 | 0.14 | 1.08 | 1.21 | 1.2 | 1.23 | 0.54 | 0.17
5 | IL-18 variant G3P, E6K, D54Y, S55P, T63S, N91S, R104Q (ligand) YFPKLKSKLSVIRNLNDQVLFIDQGNRPLFEDMTDSDMRDNAPRTIFIISMYKYPQPRGMAVSISVKSEKISTLSSENKIISFKEMNPPDSIKDTKSDIIFFQQSVPGHDNKMQFESSSYEGYFLASEKERDLFKLILKKEDELGDRSIMFTVQNED | 1.8 | 1.35 | 0.77 | 0.97 | 0.97 | 0.93 | 1.75 | 1.32 | 0.72
6 | IL-18 variant G3Q, E6H, K53T, D54S, S55Y, N91Y, R104K (ligand) YFQKLHSKLSVIRNLNDQVLFIDQGNRPLFEDMTDSDMRDNAPRTIFIISMYTSYQPRGMAVTISVKSEKISTLSSENKIISFKEMNPPDYIKDTKSDIIFFQKSVPGHDNKMQFESSSYEGYFLASEKERDLFKLILKKEDELGDRSIMFTVQNED | 1.48 | 0.88 | 0.29 | 1.03 | 1.08 | 1.08 | 1.52 | 0.95 | 0.31
7 | IL-18 variant G3P, E6K, D54Y, S55P, Q56H, T63S, N91S, R104Q (ligand) YFPKLKSKLSVIRNLNDQVLFIDQGNRPLFEDMTDSDMRDNAPRTIFIISMYKYPHPRGMAVSISVKSEKISTLSSENKIISFKEMNPPDSIKDTKSDIIFFQQSVPGHDNKMQFESSSYEGYFLASEKERDLFKLILKKEDELGDRSIMFTVQNED | 1.69 | 1.08 | 0.54 | 0.96 | 1.02 | 0.98 | 1.63 | 1.1 | 0.53
8 | IL-18 variant G3P, E6H, N91L (ligand) YFPKLHSKLSVIRNLNDQVLFIDQGNRPLFEDMTDSDMRDNAPRTIFIISMYKDSQPRGMAVTISVKSEKISTLSSENKIISFKEMNPPDLIKDTKSDIIFFQRSVPGHDNKMQFESSSYEGYFLASEKERDLFKLILKKEDELGDRSIMFTVQNED | 1.52 | 0.93 | 0.33 | 0.95 | 0.97 | 0.87 | 1.45 | 0.9 | 0.29
9 | IL-18 variant G3P, E6K, D54Y, S55P, T63S, N91S, R104Q, Q154R (ligand) YFPKLKSKLSVIRNLNDQVLFIDQGNRPLFEDMTDSDMRDNAPRTIFIISMYKYPQPRGMAVSISVKSEKISTLSSENKIISFKEMNPPDSIKDTKSDIIFFQQSVPGHDNKMQFESSSYEGYFLASEKERDLFKLILKKEDELGDRSIMFTVRNED | 1.51 | 0.81 | 0.39 | 0.99 | 1.16 | 0.93 | 1.49 | 0.94 | 0.36
10 | IL-18 variant G3P, E6K, D54R, S55P, T63A, N91V (ligand) YFPKLKSKLSVIRNLNDQVLFIDQGNRPLFEDMTDSDMRDNAPRTIFIISMYKRPQPRGMAVAISVKSEKISTLSSENKIISFKEMNPPDVIKDTKSDIIFFQRSVPGHDNKMQFESSSYEGYFLASEKERDLFKLILKKEDELGDRSIMFTVQNED | 1.34 | 0.73 | 0.28 | 0.98 | 0.92 | 0.79 | 1.31 | 0.67 | 0.22
11 | IL-18 variant G3L, E6S, D54T, T63S, N91Y, R104Q (ligand) YFLKLSSKLSVIRNLNDQVLFIDQGNRPLFEDMTDSDMRDNAPRTIFIISMYKTSQPRGMAVSISVKSEKISTLSSENKIISFKEMNPPDYIKDTKSDIIFFQQSVPGHDNKMQFESSSYEGYFLASEKERDLFKLILKKEDELGDRSIMFTVQNED | 2.06 | 1.95 | 1.44 | 1.02 | 1.02 | 1.2 | 2.11 | 1.98 | 1.73
12 | IL-18 variant G3P, E6V, K53A, D54W, S55P, T63S, N91L, R104K (ligand) YFPKLVSKLSVIRNLNDQVLFIDQGNRPLFEDMTDSDMRDNAPRTIFIISMYAWPQPRGMAVSISVKSEKISTLSSENKIISFKEMNPPDLIKDTKSDIIFFQKSVPGHDNKMQFESSSYEGYFLASEKERDLFKLILKKEDELGDRSIMFTVQNED | 1.21 | 0.57 | 0.18 | 0.98 | 0.9 | 1.04 | 1.18 | 0.52 | 0.19
